From IntAct's records for PubMed 17595167

B1: PAN2-PAN3 deadenylation complex subunit PAN3 (Homo sapiens), Q58A45 (parent)
chain: MNSGGGLPPPSAAASPSSSSLAAAVAVVAPPGVGGVPGGAAVGVKLKYCRYYAKDKTCFYGEECQFLHEDPAAGAAPGLGLHSNSVPLALAGAPVAGFPPGAVAGGGAGPPPGPKKPDLGDPGTGAAAGGGGSSGGLDGPRLAIPGMDGGALTDTSLTDSYFSTSFIGVNGFGSPVETKYPLMQRMTNSSSSPSLLNDSAKPYSAHDPLTSPASSLFNDFGALNISQRRKPRKYRLGMLEERLVPMGSKARKAKNPIGCLADRCKSGVPINMVWWNRVTENNLQTPNPTASEFIPKGGSTSRLSNVSQSNMSAFSQVFSHPSMGSPATAGLAPGMSLSAGSSPLHSPKITPHTSPAPRRRSHTPNPASYMVPSSASTSVNNPVSQTPSSGQVIQKETVGGTTYFYTDTTPAPLTGMVFPNYHIYPPTAPHVAYMQPKANAPSFFMADELRQELINRHLITMAQIDQADMPAVPTEVDSYHSLFPLEPLPPPNRIQKSSNFGYITSCYKAVNSKDDLPYCLRRIHGFRLVNTKCMVLVDMWKKIQHSNIVTLREVFTTKAFAEPSLVFAYDFHAGGETMMSRHFNDPNADAYFTKRKWGQHEGPLPRQHAGLLPESLIWAYIVQLSSALRTIHTAGLACRVMDPTKILITGKTRLRVNCVGVFDVLTFDNSQNNNPLALMAQYQQADLISLGKVVLALACNSLAGIQRENLQKAMELVTINYSSDLKNLILYLLTDQNRMRSVNDIMPMIGARFYTQLDAAQMRNDVIEEDLAKEVQNGRLFRLLAKLGTINERPEFQKDPTWSETGDRYLLKLFRDHLFHQVTEAGAPWIDLSHIISCLNKLDAGVPEKISLISRDEKSVLVVTYSDLKRCFENTFQELIAAANGQL

Variants of: B1
Conditions: with pabp1_human PABPC1, P11940
Sequence of pabp1_human PABPC1, P11940 (P11940 whole entry): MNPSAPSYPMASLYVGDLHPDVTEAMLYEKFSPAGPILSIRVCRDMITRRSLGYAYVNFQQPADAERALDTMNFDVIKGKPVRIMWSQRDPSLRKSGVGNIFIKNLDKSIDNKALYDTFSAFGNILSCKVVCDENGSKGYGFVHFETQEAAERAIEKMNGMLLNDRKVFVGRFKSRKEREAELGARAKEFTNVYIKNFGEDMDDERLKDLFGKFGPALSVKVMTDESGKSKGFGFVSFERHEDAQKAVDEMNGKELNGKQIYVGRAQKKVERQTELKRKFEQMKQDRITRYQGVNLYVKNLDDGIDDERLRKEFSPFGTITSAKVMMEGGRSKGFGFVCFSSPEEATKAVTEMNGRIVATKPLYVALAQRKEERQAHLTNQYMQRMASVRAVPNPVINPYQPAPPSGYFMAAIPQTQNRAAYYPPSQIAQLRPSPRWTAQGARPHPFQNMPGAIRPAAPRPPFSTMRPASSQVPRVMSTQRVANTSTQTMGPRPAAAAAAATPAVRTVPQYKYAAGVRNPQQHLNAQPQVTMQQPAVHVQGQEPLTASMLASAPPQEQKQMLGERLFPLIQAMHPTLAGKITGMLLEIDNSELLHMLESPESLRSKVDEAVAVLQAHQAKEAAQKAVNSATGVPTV

effect of a mutation on the interaction	Variant
decreasing interaction	F293A
